Non-standard residues stand in square brackets, D forms with d. No end group written: not given here. pY = N[C@@H](Cc1ccc(OP(=O)(O)O)cc1)C(=O)O
Key:
Settings in all cases: both partners purified
[1] = target: T1, Numb-PTBi (Numb^20–175), purified (human, UniProt P49757 20-175); experiment: crystal structure; Numb-PTBi with a 1.3 molar excess of GPpY peptide; hanging drops at 20 °C, 25% PEG 3350, 0.2 M lithium sulfate, 0.1 M Bis-Tris pH 6; space groups F222 and P212121
T1 construct: For NMR the protein was isotope-labelled; source: E. coli BL21 Rosetta pLysS, purified (NTA beads, Superdex-200)
T1 sequence (looked up): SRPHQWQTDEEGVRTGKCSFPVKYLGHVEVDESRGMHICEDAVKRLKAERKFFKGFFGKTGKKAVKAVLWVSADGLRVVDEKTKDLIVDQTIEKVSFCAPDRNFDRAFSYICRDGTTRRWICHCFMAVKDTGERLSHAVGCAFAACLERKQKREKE

[2] = target: T2, rhodamine-labeled Mdm2^216–302 (human, UniProt Q00987-11 216-302, rhodamine label (site not stated)); experiment: fluorescence polarisation; 50 nM rhodaminated Mdm2 216–302 with increasing concentrations of the ligand; 10 mM Tris-HCl pH 7.5, 0.15 M NaCl, 0.5 mM EDTA, 1 mM DTT
T2 construct: as m32 with the label; source: purified, rhodaminated in vitro
T2 sequence (Q00987 210-296): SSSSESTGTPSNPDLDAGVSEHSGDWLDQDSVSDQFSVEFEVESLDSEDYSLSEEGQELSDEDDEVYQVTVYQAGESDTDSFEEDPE

[3] = target: T3, Numb PTBi (Numb^20–175), His fusion (human, UniProt P49757 20-175); experiment: pull-down; GST-Mdm2 fragments (1 µM) on GSH beads, purified Numb fragments (5 µM in Fig. 1 F; 2 and 4 µM or 1 and 2 µM in Fig. 6), 2 h at 4 °C, 10 mM Hepes pH 7.5, 0.15 M NaCl, 5% glycerol, 0.1% Tween-20; Coomassie staining
T3 construct: source: bacterially expressed as His fusion, purified
T3 sequence (looked up): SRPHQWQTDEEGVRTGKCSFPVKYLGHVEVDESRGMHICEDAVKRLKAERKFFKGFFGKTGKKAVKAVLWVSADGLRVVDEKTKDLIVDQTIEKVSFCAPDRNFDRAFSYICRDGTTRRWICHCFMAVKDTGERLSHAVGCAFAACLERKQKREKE

[4] = target: T1, Numb-PTBi (Numb^20–175), purified; experiment: as above

B1: GPpY phosphopeptide (AYIGPpYL) (peptide)
peptide: AYIGP[pY]L
notes: also called GPpY peptide; source: synthetic peptide (United Biosystems)
- binding result [1]: binds

B2: Numb-PTBo, purified (domain or fragment)
chain: SRPHQWQTDEEGVRTGKCSFPVKYLGHVEVDESRGMHICEDAVKRLKATGKKAVKAVLWVSADGLRVVDEKTKDLIVDQTIEKVSFCAPDRNFDRAFSYICRDGTTRRWICHCFMAVKDTGERLSHAVGCAFAACLERKQKREKE
- fold reduction of binding affinity against PTBi [2]: ~30 fold

B3: GST-Mdm2^250–290 (domain or fragment, human, UniProt Q00987-11 250-290, looked up)
chain: QFSVEFEVESLDSEDYSLSEEGQELSDEDDEVYQVTVYQAG
notes: Mdm2 residues 250–290, a short stretch of the acidic domain; also called minimal Mdm2 fragment; source: E. coli BL21 Rosetta, purified (Glutathione Sepharose)
- binding result [3]: binds
- binding result [4]: binds
